Source: patent publication US20170189505A1

target: HLA-A*24 (human); assay: UV peptide exchange, anti-b2m ELISA

Binder	peptide exchange yield
MYDSYWRQF [SEQ ID No 179 peptide …]	> 75%
QYLQDAYSF [SEQ ID No 272 peptide …]	> 75%
EYSLFPGQVVI [SEQ ID No 197 peptide …]	50 to 75%
LFIPSSKLLFL [SEQ ID No 171 peptide …]	50 to 75%
RYISDQLFTNF [SEQ ID No 278 peptide …]	> 75%
YYLEVGKTLI [SEQ ID No 211 peptide …]	> 75%
IYKVGAPTI [SEQ ID No 185 peptide …]	50 to 75%
SYALLTYMI [SEQ ID No 192 peptide …]	> 75%
EYPLVINTL [SEQ ID No 219 peptide …]	50 to 75%
IYTMIYRNL [SEQ ID No 210 peptide …]	> 75%
VYTLDIPVL [SEQ ID No 160 peptide …]	> 75%
RYPDNLKHLYL [SEQ ID No 280 peptide …]	> 75%
VYPWLGALL [SEQ ID No 177 peptide …]	> 75%
LYLDIINLF [SEQ ID No 181 peptide …]	> 75%
IFPQFLYQF [SEQ ID No 186 peptide …]	> 75%
VFKASKITF [SEQ ID No 191 peptide …]	50 to 75%
EYQENFLSF [SEQ ID No 206 peptide …]	50 to 75%
IFLDYEAGTLSF [SEQ ID No 227 peptide …]	> 75%
YYVYIMNHL [SEQ ID No 225 peptide …]	50 to 75%
YFDKVVTL [SEQ ID No 215 peptide YFDKVVTL]	20 to 49%
QYLENLEKL [SEQ ID No 224 peptide …]	50 to 75%
LYIDRPLPYL [SEQ ID No 196 peptide …]	50 to 75%
WYVNGVNYF [SEQ ID No 189 peptide …]	20 to 49%
DYTTWTALL [SEQ ID No 165 peptide …]	> 75%
IYSWILDHF [SEQ ID No 173 peptide …]	> 75%

Binder	peptide exchange yield
LYNKGFIYL [SEQ ID No 159 peptide …]	> 75%
KYQDILETI [SEQ ID No 168 peptide …]	> 75%
VYGFQWRHF [SEQ ID No 276 peptide …]	> 75%
HYSQELSLLYL [SEQ ID No 158 peptide …]	> 75%
TYTQDFNKF [SEQ ID No 208 peptide …]	50 to 75%
TYIESASEL [SEQ ID No 279 peptide …]	50 to 75%
VFTRVSSFL [SEQ ID No 162 peptide …]	50 to 75%
RYPDNLKHL [SEQ ID No 286 peptide …]	20 to 49%
RYFKGLVF [SEQ ID No 188 peptide RYFKGLVF]	50 to 75%
EFGSLHLEFL [SEQ ID No 194 peptide …]	< 20%
VFTSTARAF [SEQ ID No 183 peptide …]	50 to 75%
KYIPYKYVI [SEQ ID No 223 peptide …]	50 to 75%
EYNQWFTKL [SEQ ID No 176 peptide …]	50 to 75%
LYHDIFSRL [SEQ ID No 271 peptide …]	> 75%
TYSVSFPMF [SEQ ID No 195 peptide …]	> 75%
KYPVEWAKF [SEQ ID No 289 peptide …]	> 75%
KYTSWYVAL [SEQ ID No 228 peptide …]	> 75%
RYLNKAFHI [SEQ ID No 284 peptide …]	50 to 75%
GFFIFNERF [SEQ ID No 190 peptide …]	50 to 75%
FYSRLLQKF [SEQ ID No 203 peptide …]	50 to 75%
YYEVHKELF [SEQ ID No 175 peptide …]	> 75%
AYLHSHALI [SEQ ID No 274 peptide …]	> 75%
TYGDAGLTYTF [SEQ ID No 283 peptide …]	50 to 75%
IYQLDTASI [SEQ ID No 182 peptide …]	50 to 75%
IFIEVFSHF [SEQ ID No 178 peptide …]	50 to 75%

Binder	peptide exchange yield
VYEDQVGKF [SEQ ID No 170 peptide …]	20 to 49%
AYTLIAPNI [SEQ ID No 169 peptide …]	50 to 75%
RYSTGLAGNLL [SEQ ID No 221 peptide …]	50 to 75%
VYVGGGQIIHL [SEQ ID No 174 peptide …]	50 to 75%
FFPPTRQMGLLF [SEQ ID No 217 peptide …]	> 75%
KFVDSTFYL [SEQ ID No 282 peptide …]	> 75%
VHIPEVYLI [SEQ ID No 205 peptide …]	50 to 75%
IYDDSFIRPVTF [SEQ ID No 180 peptide …]	50 to 75%
KYMVYPQTF [SEQ ID No 267 peptide …]	> 75%
LYLDKATLI [SEQ ID No 198 peptide …]	50 to 75%
TYTTVPRVAF [SEQ ID No 172 peptide …]	> 75%
KFSSFSLFF [SEQ ID No 164 peptide …]	50 to 75%
LYLKLWNLI [SEQ ID No 214 peptide …]	50 to 75%
NYINRILKL [SEQ ID No 167 peptide …]	> 75%
EYINQGDLHEF [SEQ ID No 275 peptide …]	50 to 75%
DYLKGLASF [SEQ ID No 163 peptide …]	> 75%
RFHPTPLLL [SEQ ID No 193 peptide …]	> 75%
TYLRDQHFL [SEQ ID No 187 peptide …]	> 75%
VYVSDIQEL [SEQ ID No 288 peptide …]	50 to 75%
VFQNFPLLF [SEQ ID No 184 peptide …]	> 75%
VYRDETGELF [SEQ ID No 226 peptide …]	50 to 75%
IYLVSIPEL [SEQ ID No 161 peptide …]	> 75%
TYIKPISKL [SEQ ID No 273 peptide …]	50 to 75%
YYVESGKLF [SEQ ID No 166 peptide …]	> 75%
QYSSVFKSL [SEQ ID No 216 peptide …]	> 75%
